Assays:
[1] = target: TLR5 on HCT116 cells (UniProt O60602); test: cell-based or functional assay
[2] = target: T1, Human 4Ig-B7-H3 extracellular domain (human, UniProt Q5ZPR3 29-466); test: biolayer interferometry (Octet), comparison of Kd values of Table 6
T1 construct: extracellular domain
T1 sequence (looked up): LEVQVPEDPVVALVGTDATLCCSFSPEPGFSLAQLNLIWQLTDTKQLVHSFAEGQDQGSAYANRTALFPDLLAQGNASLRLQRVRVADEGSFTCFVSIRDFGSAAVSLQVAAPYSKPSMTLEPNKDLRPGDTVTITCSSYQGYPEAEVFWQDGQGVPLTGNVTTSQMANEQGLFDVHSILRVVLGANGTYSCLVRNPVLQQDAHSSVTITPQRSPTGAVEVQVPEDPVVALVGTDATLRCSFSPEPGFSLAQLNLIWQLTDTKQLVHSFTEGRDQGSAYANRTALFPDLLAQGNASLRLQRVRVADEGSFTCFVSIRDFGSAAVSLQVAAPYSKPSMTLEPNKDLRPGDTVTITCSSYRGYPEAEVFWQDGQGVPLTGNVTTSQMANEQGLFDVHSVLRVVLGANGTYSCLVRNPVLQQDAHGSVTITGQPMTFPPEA
Source text: (§1) The extracellular domains of the indicated B7 family proteins were purchased from R&D Systems. All proteins were validated by the vendor to be both pure and functional.

[3] = target: T2, Mouse 2Ig-B7-H3 extracellular domain (mouse, UniProt Q8VE98 29-248); test: ratio of Kd values, told as the reason for using 100 ug/mL MIL33B-A594 on Pan02 cells
T2 construct: extracellular domain; Purchased recombinant extracellular domain; also called murine 2Ig-B7-H3
T2 sequence (looked up): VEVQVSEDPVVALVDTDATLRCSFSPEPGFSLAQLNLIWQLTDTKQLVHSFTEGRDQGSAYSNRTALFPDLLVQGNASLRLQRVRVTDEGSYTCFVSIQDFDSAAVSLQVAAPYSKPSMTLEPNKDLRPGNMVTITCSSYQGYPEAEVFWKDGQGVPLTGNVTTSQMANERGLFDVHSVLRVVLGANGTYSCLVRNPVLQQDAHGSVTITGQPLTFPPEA

[4] = target: T1, Human 4Ig-B7-H3 extracellular domain; test: ELISA, extracellular domain plated on 96-well plates, MIL33B titrated, absorbance read
Source text: The extracellular domains of human 4Ig-B7-H3 and murine 2Ig-B7-H3 were purchased and plated down onto 96-well plates. […] Plates were then washed and assessed for antibody binding through absorbance measurements.

[5] = target: T3, Human 2Ig-B7-H3 extracellular domain (human, UniProt Q5ZPR3 29-466); test: biolayer interferometry (Octet), MIL33B captured on the probe, extracellular domain in solution
T3 chain: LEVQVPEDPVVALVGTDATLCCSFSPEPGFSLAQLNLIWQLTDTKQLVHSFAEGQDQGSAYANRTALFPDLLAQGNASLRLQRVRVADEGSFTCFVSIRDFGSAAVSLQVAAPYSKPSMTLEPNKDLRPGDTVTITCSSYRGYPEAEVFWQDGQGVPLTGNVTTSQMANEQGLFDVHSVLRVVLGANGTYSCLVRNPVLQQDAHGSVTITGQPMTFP
Procedure: (§2) Dissociation constants, Kd, were determined utilizing biolayer interferometry (Octet) assays. […] The surface is then placed into a solution of analyte and the phase shift indicating binding was measured over time. The probe was then moved into a solution without analyte and the time course of off-binding was measured. This cycle was repeated for multiple analyte concentrations, and the Kd was calculated from global curve fitting of the concentration- and time-dependence of the analyte binding to the antibody.
as §1

[6] = target: T1, Human 4Ig-B7-H3 extracellular domain; test: as above
Procedure: as §2, §1

[7] = target: T2, Mouse 2Ig-B7-H3 extracellular domain; test: as above
Procedure: as §2, §1

[8] = target: T1, Human 4Ig-B7-H3 extracellular domain; test: ELISA
[9] = target: T4, Human 4Ig-B7-H3 expressed on cells (human, UniProt Q5ZPR3 29-534); test: live cell immunofluorescence microscopy on 4T1 cells transduced with human 4Ig-B7-H3, labeled antibody at 1 µg/mL
T4 construct: whole, on cells; also called native 4Ig-B7-H3 on HeLa and HCT116 cells; human 4Ig-B7-H3 on transduced 4T1, B16F10 and L cells
T4 sequence (looked up): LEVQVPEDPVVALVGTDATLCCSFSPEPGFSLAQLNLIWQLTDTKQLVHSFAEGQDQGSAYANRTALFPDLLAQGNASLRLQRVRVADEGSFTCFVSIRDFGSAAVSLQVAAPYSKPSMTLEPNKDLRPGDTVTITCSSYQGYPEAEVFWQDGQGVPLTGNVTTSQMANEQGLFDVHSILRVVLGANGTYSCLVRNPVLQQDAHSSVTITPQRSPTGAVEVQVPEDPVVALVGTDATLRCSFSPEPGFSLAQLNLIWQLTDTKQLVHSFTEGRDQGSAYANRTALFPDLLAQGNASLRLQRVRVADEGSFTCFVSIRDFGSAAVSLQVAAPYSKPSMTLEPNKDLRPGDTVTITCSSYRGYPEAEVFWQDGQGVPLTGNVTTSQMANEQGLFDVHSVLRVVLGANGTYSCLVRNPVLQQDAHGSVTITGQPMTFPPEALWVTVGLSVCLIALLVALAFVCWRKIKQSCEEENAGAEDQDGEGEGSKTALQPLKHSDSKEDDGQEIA
Source text: Murine breast tumor, 4T1 cells (ATCC), were stably transduced with human 4Ig-B7-H3 or empty vector using lentiviral constructs.
(§3) Cells were washed and imaged by fluorescence microscopy (TiE, Nikon).

[10] = target: T5, Murine 2Ig-B7-H3 expressed on cells (mouse, UniProt Q8VE98 29-316); test: live cell immunofluorescence microscopy on Pan02 cells, MIL33B-A594 at 100 µg/mL; one panel blocked with unlabeled MIL33B
T5 construct: whole, on cells; also called murine B7-H3 expressed on tumor cells; 2Ig-B7-H3 on Pan02 and 4T1 cells
T5 sequence (looked up): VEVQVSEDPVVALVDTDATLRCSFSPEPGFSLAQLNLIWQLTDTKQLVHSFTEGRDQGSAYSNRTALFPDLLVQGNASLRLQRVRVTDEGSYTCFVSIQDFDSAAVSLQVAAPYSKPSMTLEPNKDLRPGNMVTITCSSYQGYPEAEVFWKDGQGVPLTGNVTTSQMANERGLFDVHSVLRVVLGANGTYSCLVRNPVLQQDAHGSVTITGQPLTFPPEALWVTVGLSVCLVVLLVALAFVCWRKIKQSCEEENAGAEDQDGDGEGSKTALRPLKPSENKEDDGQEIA
Source text: as §3

[11] = target: T5, Murine 2Ig-B7-H3 expressed on cells; test: PET imaging in mice with 4T1 or B16F10 tumors carrying the negative (empty) vector, with endogenous murine 2Ig-B7-H3 only, 24 and 72 hr after injection
Source text: (§4) Immune competent mice bearing subcutaneous 4T1 tumors expressing human 4Ig-B7-H3 or negative vector (see Western blots in FIG. 3) were utilized. […] Similarly, B16F10 cells were transduced with human 4Ig-B7-H3 or empty vector. These cells have less endogenous murine 2Ig-B7H3 than 4T1 tumors.

[12] = target: T4, Human 4Ig-B7-H3 expressed on cells; test: in vivo PET of 89Zr-DFO-labeled antibody in mice bearing 4T1 or B16F10 tumors with human 4Ig-B7-H3 or vector control, %ID/cc of tumor VOIs at 24 and 72 hr
Source text: as §4

TLR5 on HCT116 cells, sequence (O60602 21-858 limits assumed): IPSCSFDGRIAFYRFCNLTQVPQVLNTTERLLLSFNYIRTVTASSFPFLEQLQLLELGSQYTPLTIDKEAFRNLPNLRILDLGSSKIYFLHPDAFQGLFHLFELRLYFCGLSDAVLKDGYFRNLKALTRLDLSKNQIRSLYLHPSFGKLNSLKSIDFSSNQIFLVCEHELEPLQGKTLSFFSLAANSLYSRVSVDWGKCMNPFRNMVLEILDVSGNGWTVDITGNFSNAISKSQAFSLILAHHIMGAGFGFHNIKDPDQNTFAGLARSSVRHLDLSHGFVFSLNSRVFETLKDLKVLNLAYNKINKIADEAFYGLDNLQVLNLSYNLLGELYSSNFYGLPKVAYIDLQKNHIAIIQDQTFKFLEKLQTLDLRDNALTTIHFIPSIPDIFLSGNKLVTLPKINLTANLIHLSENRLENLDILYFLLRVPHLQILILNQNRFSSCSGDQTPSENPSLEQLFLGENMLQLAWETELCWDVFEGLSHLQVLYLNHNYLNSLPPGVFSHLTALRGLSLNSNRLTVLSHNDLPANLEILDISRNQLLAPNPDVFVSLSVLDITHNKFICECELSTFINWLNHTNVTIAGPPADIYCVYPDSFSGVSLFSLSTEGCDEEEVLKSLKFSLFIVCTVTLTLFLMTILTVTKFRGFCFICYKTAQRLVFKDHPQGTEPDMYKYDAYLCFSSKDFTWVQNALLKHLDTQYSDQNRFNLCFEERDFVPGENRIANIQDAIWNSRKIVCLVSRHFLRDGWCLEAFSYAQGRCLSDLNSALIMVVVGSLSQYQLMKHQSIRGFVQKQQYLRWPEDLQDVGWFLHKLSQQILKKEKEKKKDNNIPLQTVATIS

Purified flagellin (ligand)
activation of NF-kB (kB-RE5-IkBa-Fluc reporter in HCT116 cells) [1]: 1.8 nM

B1: MIL33B monoclonal antibody (antibody, IgG2a, V domains shown)
VH: EVQLQQSGPELVKPGASVKMSCKASGYTFTSYVMHWVRQSPGQGLEGIGYINSYSDGTKYNEKFKGKATLTSDKSSSTAYMELSGLTSEDSAVYYCARWGGLGNGAMDYWGQGTSVTVSS
VL: QIVLTQSPAIMSASPGEKVTMTCSVSSSVNYMHWYQQKSGTSPKRWIYDTSKLASGVPARFSASGSGTSYSLTISSMEAEDAATYYCQQWTSNPLTFGAGTKLELK
notes: Mouse hybridoma antibody from an NZBWF1/J mouse; constant regions are not; also called MIL33B mAb; MIL33B antibody
fold better binding than to other B7 family members [2]: ≥ 1000 fold
fold shift in Kd from human 4Ig-B7-H3 to murine 2Ig-B7-H3 [3]: ~100 fold
EC50 (read off the curve) [4]: ~0.1 nM
Kd [5]: 0.58 nM
Kd [6]: 0.0723 nM
Kd [7]: 41.1 nM

B2: Flagellin-conjugated MIL33B (other)
VH: EVQLQQSGPELVKPGASVKMSCKASGYTFTSYVMHWVRQSPGQGLEGIGYINSYSDGTKYNEKFKGKATLTSDKSSSTAYMELSGLTSEDSAVYYCARWGGLGNGAMDYWGQGTSVTVSS
VL: QIVLTQSPAIMSASPGEKVTMTCSVSSSVNYMHWYQQKSGTSPKRWIYDTSKLASGVPARFSASGSGTSYSLTISSMEAEDAATYYCQQWTSNPLTFGAGTKLELK
modifications: MIL33B (mouse IgG2a) is chemically conjugated to purified flagellin through a commercial linker kit. Attachment sites and the number of flagellins per antibody are not stated, and the letters cannot carry them.
notes: Chemical conjugate of MIL33B (mouse IgG2a) and flagellin; also called MIL33B-flgn conjugate; MIL33B-flagellin conjugate; not shown: Flagellin (purified, InvivoGen)
EC50 [8]: 36 nM

B3: MIL33B labeled with Alexa594 fluorophore (antibody, V domains shown)
VH: EVQLQQSGPELVKPGASVKMSCKASGYTFTSYVMHWVRQSPGQGLEGIGYINSYSDGTKYNEKFKGKATLTSDKSSSTAYMELSGLTSEDSAVYYCARWGGLGNGAMDYWGQGTSVTVSS
VL: QIVLTQSPAIMSASPGEKVTMTCSVSSSVNYMHWYQQKSGTSPKRWIYDTSKLASGVPARFSASGSGTSYSLTISSMEAEDAATYYCQQWTSNPLTFGAGTKLELK
modifications: Alexa594 fluorophore on the antibody, residues not stated
notes: also called MIL33B-A594; Alexa594-labeled MIL33B
binding result [9]: binds
binding result [10]: binds

B4: MIL33B conjugated with DFO and radiolabeled with 89Zr (antibody, mouse IgG2a, V domains shown)
VH: EVQLQQSGPELVKPGASVKMSCKASGYTFTSYVMHWVRQSPGQGLEGIGYINSYSDGTKYNEKFKGKATLTSDKSSSTAYMELSGLTSEDSAVYYCARWGGLGNGAMDYWGQGTSVTVSS
VL: QIVLTQSPAIMSASPGEKVTMTCSVSSSVNYMHWYQQKSGTSPKRWIYDTSKLASGVPARFSASGSGTSYSLTISSMEAEDAATYYCQQWTSNPLTFGAGTKLELK
modifications: DFO chelator with 89Zr on the antibody, residues not stated
notes: also called MIL33B-DFO; radiolabeled MIL33B antibody
binding result [11]: binds
binding result [12]: binds

From patent US20230014398A1 (University of Texas, published 2023)
